T1: Oregon Green-labeled EMB1579 (Arabidopsis thaliana, UniProt F4IS91-1 1-1340, Oregon Green label (site not stated))
T1 construct: full-length CDS amplified from seedling cDNA; phase-separated in F-buffer in the assay; also called Oregon Green-EMB1579; EMB1579 condensates; source: Sf9 insect cells (pFastBac1-EMB1579), purified (Ni-NTA, SuperDex 200 Increase), labelled with Oregon Green
T1 sequence (looked up): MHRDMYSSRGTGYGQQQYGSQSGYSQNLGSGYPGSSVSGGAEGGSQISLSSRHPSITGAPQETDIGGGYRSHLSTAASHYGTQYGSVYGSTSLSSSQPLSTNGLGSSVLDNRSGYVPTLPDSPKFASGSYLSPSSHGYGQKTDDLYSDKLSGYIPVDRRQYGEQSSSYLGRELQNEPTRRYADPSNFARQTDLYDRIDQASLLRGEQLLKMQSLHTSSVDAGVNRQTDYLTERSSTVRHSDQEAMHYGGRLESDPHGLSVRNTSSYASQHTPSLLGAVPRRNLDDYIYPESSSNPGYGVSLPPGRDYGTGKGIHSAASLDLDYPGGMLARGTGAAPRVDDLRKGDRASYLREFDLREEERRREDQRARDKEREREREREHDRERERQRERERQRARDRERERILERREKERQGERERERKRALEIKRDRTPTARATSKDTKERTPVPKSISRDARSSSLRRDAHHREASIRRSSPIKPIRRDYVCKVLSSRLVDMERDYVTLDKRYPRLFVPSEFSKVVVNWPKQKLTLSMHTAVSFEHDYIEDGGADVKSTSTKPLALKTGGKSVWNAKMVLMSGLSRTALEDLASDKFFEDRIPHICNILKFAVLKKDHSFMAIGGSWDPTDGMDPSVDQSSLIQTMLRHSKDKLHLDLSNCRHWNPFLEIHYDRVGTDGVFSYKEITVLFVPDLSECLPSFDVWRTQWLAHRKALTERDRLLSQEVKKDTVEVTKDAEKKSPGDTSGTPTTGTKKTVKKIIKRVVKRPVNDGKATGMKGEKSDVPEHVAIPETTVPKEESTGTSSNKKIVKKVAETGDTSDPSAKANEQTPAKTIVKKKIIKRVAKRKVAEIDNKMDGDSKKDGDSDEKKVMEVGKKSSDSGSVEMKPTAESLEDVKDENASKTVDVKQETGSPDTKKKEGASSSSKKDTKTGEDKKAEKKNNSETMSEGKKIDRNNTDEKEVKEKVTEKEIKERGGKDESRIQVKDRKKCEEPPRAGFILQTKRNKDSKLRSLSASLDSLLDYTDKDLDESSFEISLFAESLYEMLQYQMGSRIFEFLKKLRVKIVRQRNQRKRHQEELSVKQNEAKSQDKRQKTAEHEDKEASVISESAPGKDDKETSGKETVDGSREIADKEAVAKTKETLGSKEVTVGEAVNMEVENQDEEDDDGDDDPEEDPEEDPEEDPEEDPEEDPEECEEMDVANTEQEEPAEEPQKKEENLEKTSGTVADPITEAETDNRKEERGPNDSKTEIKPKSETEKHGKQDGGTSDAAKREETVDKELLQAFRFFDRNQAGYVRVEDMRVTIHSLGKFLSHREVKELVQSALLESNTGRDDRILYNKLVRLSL


Target: T1, Oregon Green-labeled EMB1579
Experiment: recruitment into condensates in vitro (confocal fluorescence microscopy); Oregon Green-labeled EMB1579 (2.5 μM) with mCherry-DDB1B (500 nM) or mCherry-MSI4 (20 nM) in F-buffer (25 mM Hepes pH 8.0, 100 mM KCl, 100 mg/ml PEG 3350), 5 minutes, room temperature
Conditions: both partners purified

binding result | Binder
binds | mCherry-DDB1B (natural protein, Arabidopsis thaliana, UniProt O49552 1-1088, looked up, DDB1B, Arabidopsis; amplified with DDB1B-EcoRI-F/DDB1B-SalI-R2 from pFGC5941-DDB1B-RFP and moved into pColdI behind mCherry; source: E. coli BL21 (DE3) (pColdI-mCherry-DDB1B), purified (Ni-NTA); not shown: mCherry, N-terminal, kept) MSVWNYAVTAQKPTCVTHSCVGNFTSPQELNLIVAKSTRIEIHLLSPQGLQTILDVPLYGRIATMELFRPHGEAQDFLFVATERYKFCVLQWDYESSELITRAMGDVSDRIGRPTDNGQIGIIDPDCRVIGLHLYDGLFKVIPFDNKGQLKEAFNIRLEELQVLDIKFLYGCTKPTIAVLYQDNKDARHVKTYEVSLKDKNFVEGPWSQNNLDNGADLLIPVPSPLCGVLIIGEETIVYCSANAFKAIPIRPSITKAYGRVDLDGSRYLLGDHAGLIHLLVITHEKEKVTGLKIELLGETSIASSISYLDNAVVFVGSSYGDSQLIKLNLQPDAKGSYVEILEKYVNLGPIVDFCVVDLERQGQGQVVTCSGAYKDGSLRIVRNGIGINEQASVELQGIKGMWSLKSSIDEAFDTFLVVSFISETRILAMNIEDELEETEIEGFLSEVQTLFCHDAVYNQLVQVTSNSVRLVSSTTRELRNKWDAPAGFSVNVATANASQVLLATGGGHLVYLEIGDGTLTEVKHVLLEYEVSCLDINPIGDNPNYSQLAAVGMWTDISVRIFVLPDLTLITKEELGGEIIPRSVLLCAFEGISYLLCALGDGHLLNFQLDTSCGKLRDRKKVSLGTRPITLRTFSSKSATHVFAASDRPAVIYSNNKKLLYSNVNLKEVSHMCPFNSAAFPDSLAIAREGELTIGTIDDIQKLHIRTIPIGEHARRICHQEQTRTFAISCLRNEPSAEESESHFVRLLDAQSFEFLSSYPLDAFECGCSILSCSFTDDKNVYYCVGTAYVLPEENEPTKGRILVFIVEEGRLQLITEKETKGAVYSLNAFNGKLLASINQKIQLYKWMLRDDGTRELQSECGHHGHILALYVQTRGDFIAVGDLMKSISLLIYKHEEGAIEERARDYNANWMTAVEILNDDIYLGTDNCFNIFTVKKNNEGATDEERARMEVVGEYHIGEFVNRFRHGSLVMKLPDSDIGQIPTVIFGTVSGMIGVIASLPQEQYAFLEKLQTSLRKVIKGVGGLSHEQWRSFNNEKRTAEAKGYLDGDLIESFLDLSRGKMEEISKGMDVQVEELCKRVEELTRLH
binds | mCherry-MSI4 (natural protein, Arabidopsis thaliana, UniProt O22607 1-507, looked up, MSI4, Arabidopsis; amplified with MSI4-SalI-F/MSI4-XbaI-R2 from pEZS-NL-RFP-MSI4 and moved into pColdI-mCherry; also called recombinant MSI4 protein; source: E. coli BL21 (DE3) (pColdI-mCherry-MSI4), purified (Ni-NTA); not shown: mCherry, N-terminal, kept) MESDEAAAVSPQATTPSGGTGASGPKKRGRKPKTKEDSQTPSSQQQSDVKMKESGKKTQQSPSVDEKYSQWKGLVPILYDWLANHNLVWPSLSCRWGPQLEQATYKNRQRLYLSEQTDGSVPNTLVIANCEVVKPRVAAAEHISQFNEEARSPFVKKYKTIIHPGEVNRIRELPQNSKIVATHTDSPDVLIWDVETQPNRHAVLGAANSRPDLILTGHQDNAEFALAMCPTEPFVLSGGKDKSVVLWSIQDHITTIGTDSKSSGSIIKQTGEGTDKNESPTVGPRGVYHGHEDTVEDVAFSPTSAQEFCSVGDDSCLILWDARTGTNPVTKVEKAHDADLHCVDWNPHDDNLILTGSADNTVRLFDRRKLTANGVGSPIYKFEGHKAAVLCVQWSPDKSSVFGSSAEDGLLNIWDYDRVSKKSDRAAKSPAGLFFQHAGHRDKVVDFHWNASDPWTIVSVSDDCETTGGGGTLQIWRMSDLIYRPEEEVVAELEKFKSHVMTCASKP
